Results reported in the DeepSol protein solubility set.

Test: soluble on expression in E. coli; label from the status in PepcDB or PDB records

Sequence | soluble on expression in E. coli
MGSDKIHHHHHHMHRVGFTTTIPLEIVLAAGMTPVDLNNVFITSPHATRMIEEAEVDGFPRSICGWIKGIYAAVVECGIHELIAVTEGDCSNTRALMEVLSLKGVETIPFAYPHDRDPAGLRFEIEKLMRRFGVGWDAVKLSRERLGRIRRKVKEIDRLTWDENRVSGQENHYFQVCTSDMNSDPDRFEAEVDAFLEKARQREPFRQRLRLAYIGVPPIMTDLYPFVETLDARVVFNETQRQFAMPFDTPDLVEQYRAYTYPYDIFHRLSDILMELERRKVDAVIHYVQSFCFRQIEDMIVRQKLPLPVLTLEGDKPGPLDARTRIRIEGFLEMLA | not soluble
MGSDKIHHHHHHMRVKYFGTDGIRGIFGETLTDELAFKVGKALGEIVGEGKVIVGKDTRVSGDSLEAAISAGLTSMGVDVLLCGILPTPAVALLTRITRSFGVVISASHNPPEYNGIKVLKGGYKIPDEMEAEIEKRLENGSFLTRSVVGRTKSFREGRDMYIGAVLEMFRDLDLTGEMVSLDLANGATTTTAREVFEFLGAKVEVFNDSQDGLLINQGCGATHPRFLAEEMKNGKVGFTFDGDGDRVIAVDEERNVVNGDRIIGILAVGLKEEGRLNSDTVVGTVMTNGGLEDFLKEKGIRLLRTKVGDKYVLEKMLESGANLGGERSGHIIILDRSTTGDGLITALELMRVLKRSGRKLSDFAKEIPDYPQITKNVRRTERMSLENENLRKIVEESTSRGYRVVIRPSGTEPVIRITVEGKDREEIEKIVEEISRVLES | not soluble
MEKELVFAGFGGQGVLTLGLIVAESALELGKQVTWMPAYGPTMRGGKAYSVVKFSDESIGGPDMEEIDVLVAMNKPSLDYINLVKEGGTVVINTSAIDENVTLREDISVVKINCQELAQKVNNPK | not soluble
GPGSMRLLSFSNVPLFLALFPPLPLLSCASVWHTRRHSFSEIFFVGSFIAAPFRCIVSPRVALYRARLRFLAPAACTRALPFAYTGQQGERQIKMITATADAGSAAKAAAAPPARMFDCLDAASKERVTMLLSHYQVLLPVEQASFMQELERYNQEQQTTALERNKAGEVWIRYTNPRLQAVQARDPAYVQRSISHTAASRGSKGDAAPEEATAPCSLEDLVHIRGMFGEPEGVPIRVGKMSLYEKLQQNMRNRRSTACGSLANTTVSSIPTAADAGHGAARVSVPFGPFAEAPAKPAEGKREVGDNASPKTSAQSESGERAVALVCADTFPSHTSSVRPSAPYRNNAYQAVRLAMSSPGYTATTQPTSVAELQTPLDGVKPVLNTTAFPITEEELRDWFDELDVHGRGVLSVEEFQRYMQSLERDLGVPTEYATLELDGAQLAKDGWLSFEAFSYLVLRFVRA | not soluble
MAHHHHHHMMAAPGTSQLDSLKATARKGFYTGLSSGLMRQLIYATARLGFYPSFRDGILEGEVALGLKRSADPAGATALDRALAGASAGVFASFLSSPVEVCLVLQTTSKGKERLSMLQACNSVLKSRGVTGLWSGFGALASRAALVGVSQVAVHDQVLTMLRKRNVKRADPLGDNVVVNIASVITALFYSIVTMPVEVARVRMSAEAKLSAGAERRYHNVVQCIGRIFKEEGLLAMYDSYLPYFSRCASQTVICFFVIEYLTRELRERQKAKTNLIK | soluble
MGSDKIHHHHHHMKLQQLEYFMAVSKYASFTLASQKLHTSQPYLSTQLKELERELGASLILRDKKHCRLSPAGEVVAKRTEMIFALIKEAQEEINELVTQGSTTTIRIGTNLIDIDKAFGEVLLLFNQSYPYVSIDFKYYYDLETALETDLIDIGIGIFLDTSIPLEKELIYTESYLLCVNKNHPLAHADSVTIDEIRSLPFAAYSDQVYEKKVFKRWERKINWENRQIVIELPSLHLVLDMVQREKACSILPYSLTDELNRRNLVGIPLEDSPERAIYLVQNNHHGHCEAHRYLFEQLRYLF | not soluble
MAHHHHHHMADRADHYINQLNDAYALKVGGIYNHSTLASSNHNKAHTFGSMPHALIQMFEGDVVKAVEAYHKTFPEDDLYALVDFHNDVISDSLACLKAFKNKLKAVRIDTSKALIDKMFSEGEAEYGVTQNQVKRLREALDANGGKHVKITVSSGFNAKRIKEFEDENTPVDTYGVGASLLKI | soluble
MGSDKIHHHHHHMATQTDSEAALRIASGRKAFVEPLRLGERLKEIRLSNRWTLEDVSQRTGLARSTLSKIENDQISPTFSAVQKLIGGLGIDLPQLLTPPKPQSRTLGRRDLTRVGEGKQHPTPTYEHELLSWQLAQKRMIPFKTIVRARDFNEFSEWVRHDGEEFLMVLDGDIWLYTEFYEPLHLAQGDSIYFDSDMGHALISVSETDAVVLSVCTRGENA | not soluble
MTTSTKLVELLYQLEAQLQKHELWQQTMPSPEALQSVEPFAIDTLDPHEWLQWIFIARMHALVESSQPLPRGFSIEPYFAEVWKQEPQYAELLNTIRTIDELCKLEHHHHHH | not soluble
MGHHHHHHSHMGVTCVSQMPVAEGKSVQQTVELLTRKLEMLGAEKQGTFCVDCETYHTAASTLGSQGQTGKLMYVMHNSEYPLSCFALFENGPCLIADTNFDVLMVKLKGFFQSAKASKIETRGTRYQYCDFLVKVGTVTMGPSARGISVEVEYGPCVVASDCWSLLLEFLQSFLGSHTPGAPAVFGNRHDAVYGPADTMVQYMELFNKIRKQQQVPVAGIR | soluble
MGSDKIHHHHHHMISERMERQLDFIVAIDALKDITRQSITTGSRRQENDAEHSWHLAVMAMILSEYAEDQTIDIAKVISMVLIHDLVEIYAGDTYCYDEKGYEDKAEREQEAADRLFNMLPEDQAQRMMSLWQEFEEMETKEAAFAATLDRFQPLLLNYNTEGHTWQRPGITSEKVLKRTEIAKEKVPQLYVYIERLIQRSIERGMLKP | not soluble
DIQMTQSPSSLSASVGDRVTITCRSSQSLVHNNANTYLHWYQQKPGKAPKLLIYKVSNRFSGVPSRFSGSGSGTDFTLTISSLQPEDFATYYCSQNTLVPWTFGQGTKVEIKRTVAAPSVFIFPPSDEQLKSGTASVVCLLNNFYPREAKVQWKVDNALQSGNSQESVTEQDSKDSTYSLSSTLTLSKADYEKHKVYACEVTHQGLSSPVTKSFNRGEC | soluble
MNNDNKRSAGGLGLVGDIGGTNARFALWRGQRLESIEVLACADYPRPELAVRDYLARIGESVANIDSVCLACAGPVGAADFRFTNNHWVINRAAFREELGLDHLLLVNDFSTMAWAASRLGADELVQVRAGSAQADRARLIIGPGTGLGVGSLLPLGGGRWEVLPCEGGHVDLPVTSPRDFALWQGLQARYGHVSAERALSGNGLLALYEISCALDGVAVRASSAAEVGALAMAGDAQADAVLEHFFLWLARVAGNAVLTVGALGGVYITGGIVPRFLERFIASGFAEAFASRGKTSGAYLQDVPVWVMTAEHPGLLGAGVALQQALDAEG | not soluble
MEDISDPEVILEYGVYPAFIKGYTQLKANIEEALLEMSNSGQALDIYQAVQTLNAENMLLNYYESLPFYLNRQSILANMTKALKDAHIREAMAHYKLGEFAHYQDTMLDMVERTIKTF | not soluble
MIPKVIHYCWFGGNPLPDNLKKYIKTWREQCPDYEIIEWNEHNYDVSKNVFMREAYTKKNFAYVSDYARLDIIYTYGGFYLDTDVELLKSLDPLRIHECFLAREISCDVNTGLIIGAVKGHHFLKSNMSIYDKSDLTSLNKTCVEVTTNLLINRGLKNKNIIQKIDDITIYPRNYFNPKNLLTGKVDCLTSVTYSIHHYEGSWKSSSFISDSLKIRVRLIIDFLFGYGTYRMLLRFLKLKKLEHHHHHH | soluble
MGSDKIHHHHHHMKLLLTSGGIQNDSQRRALVDLLGKPIEEAHALCIPTAVYGMKEGPYHAYLFITGTGSTPMCELGFQSVGVLELTALPILDESLWVPLVEQADVLLVNGGDPLFLNYWMKKSGLADRLPSLKAVYVGLSAGSMVLTPRIGHAFVEWTAPHTTTDETLGLVEFSIFPHLDHELLPENTLDEAVKWAADLTGPSYAIDDQTAIQVVDGVVKVISEGHWKRFD | not soluble
MGSDKIHHHHHHMAQYSAEFKQAKVLVLGDVMLDRYWFGATNRISPEAPVPVVRVQENEERAGGAANVAMNIASLNVPVQLMGLIGQDETGSALSLLLEKQKIDCNFVALETHPTITKLRILSRHQQLLRLDFEEDFNNVDCKDLLAKLESAVKNYGALILSDYGKGTLKDVQKMIQIARKANVPVLIDPKGTDFERYRGATLLTPNMSEFEAVVGKCNTEEEIIEKGLKLISDIELTALLVTRSEKGMTLLRPNQEPYHLPTVAKEVFDVTGAGDTVISVLATALADGRSFEESCYLANVAAGIVVGKLGTSTVSTVELENAIHARPETGFGIMSEAELKDAVAQAKARGEKIVMTNGCFDILHPGHISYLENARKLGDRLIVAVNSDDSVKRLKGESRPINNLENRMAVLAGLASVDWLVPFTEDTPQRLIGEILPDLLVKGGDYKPEEIAGSKEVWANGGDVKVLNFENGCSTTNVIEKIKLLKD | not soluble
MGKRLLDKLWERHVVTTNENGLDLLYIDLHLVHEVTSPQAFEGLRLTNRTVRRPDLTFATMDHNIPTKDVWNITDRIAKQQLDTLRENCKQFQVPLADIGDEEQGIVHVIGPELGLTQPGKTIVCGDSHTATHGAFGALAFGIGTSEVEHVLATQTLWQRKPKAMGIELKGKLQKGVYAKDIILHLLSKYGVAVGTGYVMEFYGETIGTMEMEERMTLCNMAIEGGAKAGIIAPDEKTFAYVKGRKYAPRDYETFEKKWFELYTDADAIYDLHISIDVTDLAPYVTWGTNPSMGVRIDEKLPEKHDVNDERAFSYMGLIPGQSTYDIPVQHVFIGSCTNSRLSDLEIAASVVKGRKVKEGVRALVVPGSKRVRDAAMQKGLHHIFEEAGFEWREPGCSMCLGMNPDQVPEGEHCASTSNRNFEGRQGKGARTHLVSPAMAAAAALYGHFVDIRKESYDGAISYS | not soluble
GSHMSNAKTKLGITKYSIVTNSNDSVTLRLMTEHDLAMLYEWLNRSHIVEWWGGEEARPTLADVQEQYLPSVLAQESVTPYIAMLNGEPIGYAQSYVALGSGDGWWEEETDPGVRGIDQLLANASQLGKGLGTKLVRALVELLFNDPEVTKIQTDPSPSNLRAIRCYEKAGFERQGTVTTPDGPAVYMVQTRQAFERTRSDA | soluble
MGSDKIHHHHHHMHQDTVRATAFAMPLTSPAYPVGPYRFRNREYLIITYRTDPKKLRSLVPEPLELSEPLVKFEFIRMPDSTGFGNYTESGQVIPVTFRGRKGSYTHCMFLNDHPPIAGGRELWGFPKKLATPTLRTETDTLVGTLDYGPVRVATATMGYKHEAADLSAVRSSLAEPNFLLKIIPHVDGTPRICELVEYHLEDVDLRGAWAGPASLNLWSHALAPVAELPVLEVVSAMHIVADLTLALGKVVHDYLPKSEPRDLKGRSHAFAE | not soluble
GMYNPVGVAAIGLGRWAYVMADAYTKSEKLKLVTCYSRTEDKREKFGKRYNCAGDATMEALLAREDVEMVIITVPNDKHAEVIEQCARSGKHIYVEKPISVSLDHAQRIDQVIKETGVKFLCGHSSRRLGALRKMKEMIDTKEIGEVSSIEAVFSNERGLELKKGNWRGEPATAPGGPLTQLGVHQIDNLQFLLGPVARVFNFGKPMYTEVENITVNQTLLEFEDGKQAYLGTNWACPGVFSINVYGTKANLFYQLDFSWWSNSDVTDEHSTLIKREFASMSDDPDNRILRDVKVDFESVDHLRVEVEEVADVIRNGGETEIGAEASLRNLAVVLAAVKSVHEKRPVEIAEIIG | soluble
PGSSGLPPEKPKNLSCIVNEGKKMRCEWDGGRETHLETNFTLKSEWATHKFADCKAKRDTPTSCTVDYSTVYFVNIEVWVEAENALGKVTSDHINFDPVYKVKPNPPHNLSVINSEELSSILKLTWTNPSIKSVIILKYNIQYRTKDASTWSQIPPEDTASTRSSFTVQDLKPFTEYVFRIRCMKEDGKGYWSDWSEEASGITYEDRPSKEPSFW | soluble
MHVLTLDLAPVTPKDAPLLHRVFHLSPSYFALIGMELPTLEDVVRDLQTLEVDPRRRAFLLFLGQEPVGYLDAKLGYPEAEDATLSLLLIREDHQGRGLGRQALERFAAGLDGVRRLYAVVYGHNPKAKAFFQAQGFRYVK | not soluble
